Results on two molecules are retold here after US20150266963A1 (ARGEN X B V, published 2015).

To fix the notation:
T1: CD27 (UniProt P26842 21-192, limits assumed)
T1 sequence (looked up): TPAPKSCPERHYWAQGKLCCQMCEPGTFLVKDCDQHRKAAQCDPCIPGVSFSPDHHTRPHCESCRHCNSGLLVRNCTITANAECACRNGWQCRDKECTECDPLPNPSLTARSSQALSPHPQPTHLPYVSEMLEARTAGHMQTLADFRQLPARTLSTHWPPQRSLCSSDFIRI

T2: human-mouse CD70 chimera chim-3 (Flag-TNC-CD70)
T2 construct: also called chimera 3
T2 chain: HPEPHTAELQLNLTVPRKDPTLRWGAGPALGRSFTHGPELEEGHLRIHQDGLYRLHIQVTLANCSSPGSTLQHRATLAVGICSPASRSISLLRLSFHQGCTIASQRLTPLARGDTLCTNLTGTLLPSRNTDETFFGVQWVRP

T3: human-mouse CD70 chimera chim-2.2 (Flag-TNC-CD70)
T3 construct: also called chimera 2.2; not shown: N-terminal Flag tag, TNC trimerisation domain and any linkers of the Flag-TNC-CD70 construct
T3 chain: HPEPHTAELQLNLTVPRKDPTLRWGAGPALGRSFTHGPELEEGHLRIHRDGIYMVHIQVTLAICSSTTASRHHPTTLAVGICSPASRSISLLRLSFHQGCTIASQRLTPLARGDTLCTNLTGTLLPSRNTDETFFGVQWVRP

T4: human-mouse CD70 chimera chim-2.4 (Flag-TNC-CD70)
T4 construct: also called chimera 2.4
T4 chain: T3 chain with R49Q, I52L, M54R, V55L

T5: human-mouse CD70 chimera chim-2.1 (Flag-TNC-CD70) (Soluble homotrimer held by the TNC domain; one CD70 ECD chain is given.)
T5 construct: also called chimera 2.1; not shown: N-terminal Flag tag, TNC (tenascin-C) trimerisation domain and any linkers of the Flag-TNC-CD70 construct
T5 chain: T3 chain with E41D, E42K, H44Q

T6: human-mouse CD70 chimera chim-4 (Flag-TNC-CD70) (Mus musculus (Mouse), UniProt O55237 54-192)
T6 construct: also called chimera 4
T6 chain: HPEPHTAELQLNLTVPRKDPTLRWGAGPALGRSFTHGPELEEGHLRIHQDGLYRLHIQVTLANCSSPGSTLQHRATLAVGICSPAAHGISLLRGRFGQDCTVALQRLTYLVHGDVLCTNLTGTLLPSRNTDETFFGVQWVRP

T7: human-mouse CD70 chimera chim-1 (Flag-TNC-CD70) (Homo sapiens (Human), UniProt P32970 58-193, Soluble homotrimer held by the TNC domain; one CD70 ECD chain is given.)
T7 construct: also called chimera 1; not shown: N-terminal Flag tag, TNC (tenascin-C) trimerisation domain and any linkers of the Flag-TNC-CD70 construct
T7 chain: T3 chain with T35L, E41D, E42K, H44Q

T8: human-mouse CD70 chimera chim-2 (Flag-TNC-CD70)
T8 construct: also called chimera 2
T8 chain: T3 chain with R49Q, I52L, M54R, V55L, I63N

T9: mouse Flag-TNC-CD70 (mouse, UniProt O55237 45-195)
T9 construct: extracellular domain; also called mouse CD70; not shown: Flag tag and TNC trimerisation domain
T9 sequence (looked up): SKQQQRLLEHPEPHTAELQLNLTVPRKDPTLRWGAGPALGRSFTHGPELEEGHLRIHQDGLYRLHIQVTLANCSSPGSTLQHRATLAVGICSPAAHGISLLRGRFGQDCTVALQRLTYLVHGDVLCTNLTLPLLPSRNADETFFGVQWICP

B1: recombinant human CD70 (Flag-TNC-CD70) (ligand, UniProt P32970 39-193, looked up)
chain: QRFAQAQQQLPLESLGWDVAELQLNHTGPQQDPRLYWQGGPALGRSFLHGPELDKGQLRIHRDGIYMVHIQVTLAICSSTTASRHHPTTLAVGICSPASRSISLLRLSFHQGCTIASQRLTPLARGDTLCTNLTGTLLPSRNTDETFFGVQWVRP
notes: extracellular domain; Captured by anti-Flag mAb in ELISA; as 'recombinant human CD70' immobilised on Biacore CM5 chips; TNC is for trimerisation; also called recombinant CD70; human recombinant CD70; not shown: Flag tag and TNC trimerisation domain
B2: recombinant human CD27 Fc chimera (CD27-Fc) (Fc fusion, UniProt P26842 21-192, looked up)
chain: T1 sequence (looked up)
notes: Bought reagent; also called recombinant CD27-Fc; Fc part of the bought chimera not given

The target in assay [1] is B2. The assay can be described thus: Biacore off-rate analysis, CD27 passed over coated CD70. The protocol:
(§1) Off-rates of the purified llama-derived anti-CD70 blocking Fabs were determined using the Biacore. Recombinant human CD70 was immobilized on a CM5 Biacore chip. The immobilization was performed in accordance with a method provided by Biacore and by using the NHS/EDC kit (Biacore AB): after activation of the chip, a solution of 50 μg/ml of recombinant CD70 in 10 mM acetate buffer with pH of 5 was prepared and 1 μl of this solution (50ng) was injected resulting in a surface density of approximately 1000 RU.
(§2) Fabs for the CD70 mAbs ARGX-110, MDX2H5 and SGN70 were prepared by […] digestion (SGN70 and MDX69A7 are described elsewhere herein, MDX2H5, also referred to as MDX1411, is described in WO2008/074004 FIGS. 1A and 1B). Fabs, at a concentration of approximately 100-400 μg/ml, were diluted 6-fold in hepes-buffered saline (0.1M Hepes, 1.5M NaCl, 30 mM EDTA, 0.5% v/v surfactant P20). They were injected (30 μl) and passed through the flow cells at a flow rate of 30 μl/min. After binding of the Fab to CD70, the off-rate was monitored for a period of 10 minutes. After the dissociation, the flow cell surfaces were regenerated by injecting 5 μl of 10 mM NaOH. Sometimes multiple injections of NaOH were needed to regenerate the surfaces depending on the affinity of the Fabs. […] Moreover, the off-rate of CD27 for CD70 was determined as well.

A further assay addresses T1, CD27. The assay can be described thus: Biacore; recombinant human CD70 on CM5 chip; CD27 injected. The protocol: as §1, §2
Assay [2] has as its target T2, human-mouse CD70 chimera chim-3 …. Put plainly: ELISA; chimera captured by anti-Flag mAb; anti-human-Fc-HRP. The protocol: (§3) A Maxisorb (Nunc) microtiter plate was coated with 3.5 μg/ml mouse M2 anti-Flag mAb (Sigma Aldrich, F3165) and the different chimeras were captured. A dilution series of the CD70 mAbs to be tested was applied starting at a concentration of 10 μg/ml and making 3-fold dilutions. After 2 hours, binding was detected using anti-human-Fc-HRP at a 16000-fold dilution. Staining was done with ABTS and OD at 405 nm was measured. As a positive control, CD27-Fc was applied which is able to bind to both human and mouse CD70 with good affinity as well as to the chimeric human-mouse CD70 variants.

In assay [3] the target is T3, human-mouse CD70 chimera chim-2.2 …. The assay is described as above. The protocol: as §3
The target of assay [4] is T4, human-mouse CD70 chimera chim-2.4 …. Described as above. The protocol:
as §3

For assay [5], the target named is T5, human-mouse CD70 chimera chim-2.1 …. The assay is described as above. As to the method: as §3
The target of assay [6] is T6, human-mouse CD70 chimera chim-4 …. Described as above. As to the method:
as §3

For assay [7], the target named is T7, human-mouse CD70 chimera chim-1 …. Described as above. As to the method: as §3
Assay [8] deals with T8, human-mouse CD70 chimera chim-2 …. Described as above. As to the method:
as §3

For assay [9], the target named is B1. Put plainly: ELISA; Flag-TNC-CD70 captured by anti-Flag mAb; anti-human-Fc-HRP. The protocol: as §3
Another assay addresses T9, mouse Flag-TNC-CD70. Put plainly: ELISA; mouse Flag-TNC-CD70 captured by anti-Flag mAb; anti-human-Fc-HRP. The protocol: as §3

Positions count from the first letter of the chain named.

Turning to B1, the koff (in [1]; with CD27) was 8e-05 s⁻¹ throughout.

B2: the concentration giving a half-maximal response (EC50) stood at 0.094 µg/mL in assay [2]; 0.056 µg/mL in assay [3]; 0.076 µg/mL in [4]; 0.051 µg/mL in assay [5]; 0.051 µg/mL in [6]; 0.159 µg/mL in assay [7]. The values for the concentration giving a half-maximal response (EC50) (in assay [8]; in [9]; in the assay with mouse Flag-TNC-CD70) were 0.099 µg/mL, 0.079 µg/mL and 0.041 µg/mL, respectively.
